Patent US20060246071A1

Assays:
[1] = biological target: human Ang-2 V345M (human) (UniProt O15123); experiment: ELISA
[2] = biological target: human Ang-2 mutated at positions 365 and 367 (human) (UniProt O15123); experiment: ELISA
[3] = biological target: human Ang-2 H375Q (human) (UniProt O15123); experiment: ELISA
[4] = biological target: Human Ang-1/2 BsmI chimera (human); experiment: ELISA
[5] = biological target: Mouse/Human Ang-2 StuI chimera (mouse; human) (UniProt O35608); experiment: ELISA
Sequence of Mouse/Human Ang-2 StuI chimera (mouse; human) (O35608 other isoform, or with tags, fused parts or gaps mutant): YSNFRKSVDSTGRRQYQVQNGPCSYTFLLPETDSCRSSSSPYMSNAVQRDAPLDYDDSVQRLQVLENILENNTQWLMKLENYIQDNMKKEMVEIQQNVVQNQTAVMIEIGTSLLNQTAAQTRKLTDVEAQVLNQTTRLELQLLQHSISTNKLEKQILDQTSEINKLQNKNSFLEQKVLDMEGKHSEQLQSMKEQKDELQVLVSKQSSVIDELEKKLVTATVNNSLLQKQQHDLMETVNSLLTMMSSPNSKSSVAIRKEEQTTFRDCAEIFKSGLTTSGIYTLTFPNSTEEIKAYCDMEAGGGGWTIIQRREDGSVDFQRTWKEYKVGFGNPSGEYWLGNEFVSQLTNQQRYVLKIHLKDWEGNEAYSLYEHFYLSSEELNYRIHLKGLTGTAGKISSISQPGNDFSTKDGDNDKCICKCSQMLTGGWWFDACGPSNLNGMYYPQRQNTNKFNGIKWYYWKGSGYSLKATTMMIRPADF

human Ang-2443 (human) = human Ang-2443 (human) (UniProt O15123); experiment: ELISA
Sequence of human Ang-2443 (human) (O15123 other isoform, or with tags, fused parts or gaps): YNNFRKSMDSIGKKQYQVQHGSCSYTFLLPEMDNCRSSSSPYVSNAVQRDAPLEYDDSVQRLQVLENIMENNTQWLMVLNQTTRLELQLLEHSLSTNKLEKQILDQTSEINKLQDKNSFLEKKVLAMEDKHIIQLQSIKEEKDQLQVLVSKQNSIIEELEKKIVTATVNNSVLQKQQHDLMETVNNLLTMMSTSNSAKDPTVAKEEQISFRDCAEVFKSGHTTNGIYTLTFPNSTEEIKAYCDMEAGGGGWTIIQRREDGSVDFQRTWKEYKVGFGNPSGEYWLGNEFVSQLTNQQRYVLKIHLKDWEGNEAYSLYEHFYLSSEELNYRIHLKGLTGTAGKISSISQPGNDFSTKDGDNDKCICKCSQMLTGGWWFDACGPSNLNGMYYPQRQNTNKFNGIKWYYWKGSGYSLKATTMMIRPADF

[6] = biological target: Mouse/Human chimeric Ang-2 with human StuI-TfiI fragment (residues 310-400) (mouse with human residues 310-400) (UniProt O35608); experiment: ELISA
Sequence of Mouse/Human chimeric Ang-2 with human StuI-TfiI fragment (residues 310-400) (mouse with human residues 310-400) (O35608 other isoform, or with tags, fused parts or gaps mutant limits assumed): as the sequence (O35608 other isoform, or with tags, fused parts or gaps mutant) above, with K386T, G393A, N403S, G410S, T424S, M440Q, R445K counted along it

[7] = biological target: recombinant human Angiopoietin-2 (human) (UniProt O15123); experiment: Biacore, mAb captured; kd held constant in fit
Sequence of recombinant human Angiopoietin-2 (human) (O15123 19-496 limits assumed): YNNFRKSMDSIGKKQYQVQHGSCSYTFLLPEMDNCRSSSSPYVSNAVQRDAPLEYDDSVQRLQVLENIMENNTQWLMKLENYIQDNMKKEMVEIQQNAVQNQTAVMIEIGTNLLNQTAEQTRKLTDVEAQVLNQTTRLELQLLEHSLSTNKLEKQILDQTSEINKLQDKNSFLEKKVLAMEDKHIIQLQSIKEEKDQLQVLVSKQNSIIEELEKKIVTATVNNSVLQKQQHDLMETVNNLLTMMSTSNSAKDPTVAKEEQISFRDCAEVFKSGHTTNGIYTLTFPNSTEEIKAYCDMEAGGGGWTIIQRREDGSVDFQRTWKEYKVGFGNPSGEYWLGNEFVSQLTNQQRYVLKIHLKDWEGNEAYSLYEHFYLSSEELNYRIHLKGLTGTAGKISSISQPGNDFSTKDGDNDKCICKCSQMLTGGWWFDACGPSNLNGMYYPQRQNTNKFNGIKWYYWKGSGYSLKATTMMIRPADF

[8] = biological target: recombinant human Angiopoietin-2 (human) (UniProt O15123); experiment: Biacore, mAb captured
[9] = biological target: recombinant human Angiopoietin-2 (human) (UniProt O15123); experiment: inhibition of rhAng-2 binding to its receptor
[10] = biological target: mouse Angiopoietin-2 (mouse) (UniProt O35608); experiment: ELISA
Sequence of mouse Angiopoietin-2 (mouse) (O35608 19-496 S348N/G411A limits assumed): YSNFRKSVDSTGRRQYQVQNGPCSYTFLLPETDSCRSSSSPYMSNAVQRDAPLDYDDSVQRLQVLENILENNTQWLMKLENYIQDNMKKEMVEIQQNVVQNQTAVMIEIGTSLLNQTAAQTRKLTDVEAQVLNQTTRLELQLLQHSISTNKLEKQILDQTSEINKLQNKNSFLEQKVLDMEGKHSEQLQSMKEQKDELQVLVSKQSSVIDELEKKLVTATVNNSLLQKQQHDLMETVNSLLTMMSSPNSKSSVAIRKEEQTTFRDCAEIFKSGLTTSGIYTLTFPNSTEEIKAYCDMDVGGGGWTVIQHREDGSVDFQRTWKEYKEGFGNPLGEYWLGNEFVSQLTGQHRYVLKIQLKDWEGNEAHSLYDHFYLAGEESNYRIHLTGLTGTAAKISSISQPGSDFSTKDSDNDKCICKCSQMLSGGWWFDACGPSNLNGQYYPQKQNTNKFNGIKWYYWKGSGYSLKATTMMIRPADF

[11] = biological target: mouse Angiopoietin-2 (mouse) (UniProt O35608); experiment: ELISA titration, mouse Ang-2 supernatant coated

Sequence of human Ang-2 H375Q (human) (O15123 19-496, stated change not applied): as the sequence (O15123 19-496 limits assumed) above
Sequence of human Ang-2 V345M (human) (O15123 19-496, stated change not applied): as the sequence (O15123 19-496 limits assumed) above
Sequence of human Ang-2 mutated at positions 365 and 367 (human) (O15123 19-496, stated change not applied): as the sequence (O15123 19-496 limits assumed) above

Binder | percent binding compared to human Ang-2 [1] [%] | percent binding compared to human Ang-2 [2] [%] | percent binding compared to human Ang-2 [3] [%] | percent binding compared to human Ang-2 [4] [%] | percent binding compared to human Ang-2 [5] [%] | percent binding compared to human Ang-2 (human Ang-2443 (human)) [%] | percent binding compared to human Ang-2 [6] [%] | koff [7] [s⁻¹] | Kd [8] [nM] | kon [8] [M⁻¹ s⁻¹] | OD650 in inibition assay [9] [OD650] | percent of their immunoreactivity on human Ang-2 [10] [%] | antibody concentration at saturation [11] [µg/mL]
mAb 5.39.1 (antibody, V domains shown) VH: QVQLVQSGAEVTKPGASVKVSCKASGYTFTAYHMYWVRQAPGQGLEWMGWINPNSGGTNYAQKFQGRVTMTRDTSISTAYMELSRLRSDDSPVYYCARDQGIAAAGPFDYWGQGTLVTVSS VL: EIVMTQSPATLSVSPGDRATLSCRASQSVSSNFAWYQQKPGQAPRLLIYGSSTRATGIPARFSGSGSGTEFTLTISSLQSEDFAVYYCQQYHYWWTFGQGTKVEFKR | 100 | 100 | 100 | 100 | – | – | – | – | – | – | – | – | –
mAb 5.62.1 (antibody, V domains shown) VH: EVQLVESGGGLVQPGGSLRLSCAASGFTFSSYWMSWVRQAPGKGLEWVANIKQDGSEKYYVDSVKGRFTISRDNAKNSLYLQMNSLRAEDTAVYYCARDPGIAVAGPFDYWGQGTLVTVSS VL: EIVMTQSPATLSVSPGERATLSCRASQSVSSNLAWYQQKPGQAPRLLIYGAFTRATGIPARFSGSGSGTEFTLTISSLQSEDFAVYYCQQYNHWWTFGQGTKVGIKR | 100 | 100 | 100 | 100 | – | – | – | – | – | – | – | – | –
mAb 3.3.2 (antibody, V domains shown) VH: EVQLVESGGGLVQPGGSLRLSCAVSGFTFSSYWMSWVRQAPGKGLEWVANIKQDGSEKYYVDSVKGRFTISRDNAKNSLYLQMNSLRAEDTAVYYCARDQGIAVAGPFDYWGQGTLVTVSS VL: EIVMTQSPATLSVSPGERATLSCRASQTVSSDLAWYQQKPGQAPRLLIYGASIRATGIPARFSGSGSGTEFTLTISSLQSEDFAVYSCQQYYNWWTFGQGTKVEIKR | 100 | 100 | 100 | 100 | – | – | – | – | – | – | – | – | –
mAb 6.3.1 (antibody, V domains shown) VH: QVQLVQSGAEVKKPGASVKVSCKASGYTFTGYFMHWVPQAPGQGLEWMGWINPNSGGTNYAQNFQGRVTMTRDTSISTAYMELSRLRSDDTPVYYCARDPWQNWNSYFDYWGQGTLVTVSS VL: DIQMTQSPSSLSASVGDRVTITCRASQSIRSYLNWYQQKPGKAPKVLIYAASSLQSGVPSRFSGSGSGTDFTLTISSLQPEDFATYYCQQSYSTLCSFGQGTKLEIKR | 100 | 100 | 100 | 100 | – | – | – | – | – | – | – | – | –
mAb 5.28.1 (antibody, V domains shown) VH: EVQLVESGGIVVQPGGSLRLSCAASGFTFDDYTMHWVRQTPGKGLEWVSLISWDGGSTYYADSVKGRFTISRDNSKNSLYLQMNSLRTEDTALYYCAKDIDIAVAGTGFDHWGQGTLVTVSS VL: EIVMTQSPATLSVSPGERATLSCRASQSVTSNLAWYQQKPGQAPRLLIYGALIRATGIPARFSGSGSGTEFTLTISSLQSEDFAVYYCQQYNNWPFTFGPGTKVDIKR | 100 | 100 | 100 | 100 | – | – | – | – | – | – | – | – | –

Other lines, results leading:

percent binding compared to human Ang-2 [1] [%] | percent binding compared to human Ang-2 [2] [%] | percent binding compared to human Ang-2 [3] [%] | percent binding compared to human Ang-2 [4] [%] | percent binding compared to human Ang-2 [5] [%] | percent binding compared to human Ang-2 (human Ang-2443 (human)) [%] | percent binding compared to human Ang-2 [6] [%] | koff [7] [s⁻¹] | Kd [8] [nM] | kon [8] [M⁻¹ s⁻¹] | OD650 in inibition assay [9] [OD650] | percent of their immunoreactivity on human Ang-2 [10] [%] | antibody concentration at saturation [11] [µg/mL] | Binder
100 | 100 | 100 | 100 | – | – | – | – | – | – | – | – | – | mAb 5.88.3 (antibody, V domains shown) VH: EVQMVESGGGLVQPGGSLRLSCAASGFTLRSYWMSWVRQAPGKGLEWVANIKEDGSEKYHVDSVKGRFTISRDNAENSLFLQMSSLRAEDTAVYYCARDMEASAGLFDYWGQGTLVTVSS VL: EIVMTQSPATLSVSPGERAILSCRASQSISSNLAWYQQKPGQAPRLLIYGASTRATGIPARFSGSGSGTEFTLTISSLQSEDFAVYYCQQYNYWWTFGQGTKVEIKR
100 | 100 | 100 | 100 | – | – | – | – | – | – | – | – | – | mAb 5.86.1 (antibody, V domains shown) VH: QVQLVQSGAEVKKPGASVKVSCKASGYTFTGYHMYWVRQAPGQGLEWLGWINPNSGGTNYAQKFQGRVTMTRDTSISTAYMELSRLRSDDTAVYYCVRDQGIAAAGPFDYWCQGTLVTVSS VL: DIRMTQSPSSLSASVGDRVTITCRASQRISTYLNWYQQKPGKAPKFLIYAASSLQSGVPSRFSGSGSGTDFTLTISSLQPEDFATYYCQQSYTTPFTFGPGTKVDIKR
100 | 100 | 100 | 100 | 100 | 100 | 31 | 1e-05 | 0.037 | 270000 | 0.0588 | – | – | mAb 3.28.1 (antibody, part only; not given: light chain, V domains shown, part only) VH: EVQLVESGGGLVQPGGSLRLSCAASGFTFSSSWMSWVRQAPGKGLEWVANIKQDGSDKYYVDSVKGRFTISRDNAKNSLYLQMNSLRAEDTAVYYCVRDKGSGWFDYWGQGTLVTVSSA
100 | 100 | 100 | 100 | 100 | 100 | 100 | 1e-05 | 0.062 | 160000 | 0.069 | 100 | 10 | mAb 5.2.1 (antibody, part only; not given: light chain, V domains shown, part only) VH: QVQLVESGGGVVQPGRSLRLSCAASGFTFSSYGMHWVRQAPGKGLEWVAVIWFDGFNKYYADSVKGRFTISRDNSKNTLYLQMNSLRAEDTAVYHCARDRGYSGYDHYYGMDVWGQGTTVTVSSA
